The values that follow come from US20250277199, “NOVEL CRISPR-CAS NUCLEASES FROM METAGENOMES” (Brain Biotech AG, published 2025).

The target of this data set is T1, BMC05 (uncultured bacterium (metagenome)).
T1 chain: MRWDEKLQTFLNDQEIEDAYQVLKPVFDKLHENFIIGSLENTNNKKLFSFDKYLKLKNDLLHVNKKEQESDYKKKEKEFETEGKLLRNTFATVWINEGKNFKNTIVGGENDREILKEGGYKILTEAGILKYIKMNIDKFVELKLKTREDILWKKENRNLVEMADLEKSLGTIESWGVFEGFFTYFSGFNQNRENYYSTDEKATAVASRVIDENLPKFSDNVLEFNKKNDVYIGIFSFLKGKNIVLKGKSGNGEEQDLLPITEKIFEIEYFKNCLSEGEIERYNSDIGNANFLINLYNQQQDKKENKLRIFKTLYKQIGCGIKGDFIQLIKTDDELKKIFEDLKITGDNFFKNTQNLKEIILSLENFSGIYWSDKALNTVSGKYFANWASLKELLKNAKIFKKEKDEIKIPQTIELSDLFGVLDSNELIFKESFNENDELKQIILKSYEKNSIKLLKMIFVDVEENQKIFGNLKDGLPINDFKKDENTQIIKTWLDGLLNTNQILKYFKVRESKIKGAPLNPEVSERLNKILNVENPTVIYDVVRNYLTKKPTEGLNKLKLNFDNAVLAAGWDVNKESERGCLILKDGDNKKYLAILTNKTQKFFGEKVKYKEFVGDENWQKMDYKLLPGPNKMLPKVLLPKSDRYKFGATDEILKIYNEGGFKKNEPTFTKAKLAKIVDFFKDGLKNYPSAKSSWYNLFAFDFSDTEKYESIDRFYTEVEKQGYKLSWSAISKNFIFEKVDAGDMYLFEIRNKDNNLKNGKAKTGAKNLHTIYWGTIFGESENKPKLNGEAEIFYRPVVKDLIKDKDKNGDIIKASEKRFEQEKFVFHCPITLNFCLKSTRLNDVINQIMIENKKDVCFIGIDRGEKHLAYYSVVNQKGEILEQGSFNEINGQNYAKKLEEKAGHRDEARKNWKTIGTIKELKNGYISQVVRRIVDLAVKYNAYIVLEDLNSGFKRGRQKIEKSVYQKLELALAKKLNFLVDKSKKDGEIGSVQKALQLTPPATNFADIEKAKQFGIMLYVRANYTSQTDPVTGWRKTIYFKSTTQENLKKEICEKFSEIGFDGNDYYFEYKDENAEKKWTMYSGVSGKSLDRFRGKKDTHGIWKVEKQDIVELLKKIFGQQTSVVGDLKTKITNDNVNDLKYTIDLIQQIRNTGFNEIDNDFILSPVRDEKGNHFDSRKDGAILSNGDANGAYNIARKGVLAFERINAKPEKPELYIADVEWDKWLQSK
In words: cell_activity; PAM not stated; E. coli depletion, 30 C. The gist of the method: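 E. coli carrying arabinose-induced (0.2%) BMC nuclease, grown at 30° C., made electrocompetent and electroporated with 50-100 ng plasmid carrying gRNA against malQ. Transformants plated on selective M9-glucose agar with kanamycin/ampicillin (± nourseothricin), and growth scored after 48 h at 30° C.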

B1: malQ gRNA (BMC stem-loop + 24 nt spacer) ; malQ protospacer (ssRNA ; dsDNA)
RNA: GAUUUCUACUAUUGUAGAUGUGGCGGUACGUUGAUGCAUCGCG
DNA 1: GTGGCGGTACGTTGATGCATCGCG
DNA 2: CGCGATGCATCAACGTACCGCCAC
B1: the activity is > 99.9 % colony reduction.
